Laboratory results reported in US20240301053A1, “COMBINATION THERAPIES WITH VENETOCLAX AND TIM-3 INHIBITORS” (Novartis AG, priority 2019, published 2024).

Biological target: T1, TIM-3/Galectin-9 interaction (Homo sapiens, UniProt Q8TDQ0)
T1 construct: TIM-3 fusion protein (R&D Systems) was coated on a standard MesoScale 96 well plate; purchased R&D Systems
Assay: plate-based (MesoScale) TIM-3/Galectin-9 competition assay
Assay type: binding
Conditions: TIM-3 fusion protein coated at 2 μg/ml; labeled Galectin-9 100 nM; serial dilutions
Description: TIM-3 fusion protein (R&D Systems) was coated on a standard MesoScale 96 well plate (Meso Scale Discovery) at 2 μg/ml in PBS (Phosphate Buffered Saline) and incubated for six hours at room temperature. The plate was washed three times with PBST (PBS buffer containing 0.05% Tween-20) and blocked with PBS containing 5% Probumin (Millipore) overnight at 4° C. After incubation, the plate was washed three times with PBST and unlabeled antibody (F38-2E2 (BioLegend); MBG453; MBG453 F(ab′)2; MBG453 F(ab); or control recombinant human Galectin-9 protein) diluted in Assay Diluent (2% Probumin, 0.1% Tween-20, 0.1% Triton X-100 (Sigma) with 10% StabilGuard (SurModics)), was added in serial dilutions to the plate and incubated for one hour on an orbital shaker at room temperature. The plate was then washed three times with PBST, and Galectin-9 labeled with MSD SULFOTag (Meso Scale Discovery) as per manufacturer's instructions, diluted in Assay Diluent to 100 nM, was added to the plate for one hour at room temperature on an orbital shaker. The plate was again washed three times with PBST, and Read Buffer T (1×) was added to the plate. The plate was read on MA600 Imager, and competition was assessed as a measure of the ability of the antibody to block Ga19-SULFOTag signal to TIM-3 receptor.

ability to block Gal9-SULFOTag signal to TIM-3 receptor (interaction between TIM-3 and Galectin-9): did not
B1: control Galectin-9 protein: control recombinant human Galectin-9 protein, unlabeled (protein)
chain: AFSGSQAPYLSPAVPFSGTIQGGLQDGLQITVNGTVLSSSGTRFAVNFQTGFSGNDIAFHFNPRFEDGGYVVCNTRQNGSWGPEERKTHMPFQKGMPFDLCFLVQSSDFKVMVNGILFVQYFHRVPFHRVDTISVNGSVQLSYISFQPPGVWPANPAPITQTVIHTVQSAPGQMFSTPAIPPMMYPHPAYPMPFITTILGGLYPSKSILLSGTVLPSAQRFHINLCSGNHIAFHLNPRFDENAVVRNTQIDNSWGSEERSLPRKMPFVRGQSFSVWILCEAHCLKVAVDGQHLFEYYHRLRNLPTINRLEVGGDIQLTHVQT
